The numbers were not newly measured in paper PMC5683942, which cites them from elsewhere.

pKd: −log10 of the molar value.

Data set [1] addresses Histone H4 K5buK8bu (Homo sapiens) (UniProt P62805).
In data set [2] the target is Histone H4 K5ac (Homo sapiens) (UniProt P62805).
Data set [3] addresses Histone H4 K8ac (Homo sapiens) (UniProt P62805).
Data set [4] concerns the target Histone H4 K12ac (Homo sapiens) (UniProt P62805).
The target of data set [5] is Histone H3 K14ac (Homo sapiens) (UniProt P68431).
The target in data set [6] is Histone H2A K5ac (Homo sapiens) (UniProt P0C0S8).

Turning to BRD9 bromodomain (from UniProt Q9H8M2), the pKd in data set [1] was 4.22.
In the case of BRPF1 bromodomain (from UniProt P55201), the pKd in data set [2] was 2.91; in data set [3], 3.16; in data set [4], 4.06; in data set [5] it was 3.20; in data set [6] it was 4.31.
